The values that follow come from US20080227700A1, “Compositions and Methods for Treatment of Protein Misfolding and Protein Aggregation Diseases” (priority 2004, published 2008).

The subject of assay [1] is bovine βH crystallin. Kind of assay: Protein pin array interaction with βH crystallin. It counts as binding. As to conditions: unheated βH crystallin; similar maxima with βH crystallin pre-heated at 45° C. for fifteen minutes. From the text:
(§1) Synthesis of Pins, binding and detection of peptides binding to ligand proteins. The αB crystallin protein pin array was used to measure the interaction between peptides and chaperone target proteins including bovine βH crystallin, human γD crystallin, equine alcohol dehydrogenase (ADH) and porcine citrate synthase (CS) as described (FIG. 12). Ghosh and Clark, Protein Sci 14: 684-95, 2005.
(§2) Refer to the methods section for detailed protocols. The absorbance corresponding to the blue coloration in each well was measured at λ=450 nm and plotted against the amino acid sequence of the corresponding peptide in that well (FIGS. 13 and 14). Wells containing peptides that have strong interactions with target proteins are dark blue and wells containing peptides that have weak or no interaction with target proteins are light blue or clear.
(§3) The purity of the target proteins used in the pin array assays, bovine βH crystallin, human γD crystallin, equine alcohol dehydrogenase (ADH) and porcine citrate synthase (CS) were determined to be >90% by SDS-PAGE. In addition, primary antibodies for each target protein were specific to that target protein and consequently contaminating proteins that may bind to the peptides will not be detected. Eighty-four sequential and overlapping peptide fragments corresponding to residues 1-175 of human αB crystallin were synthesized employing a simultaneous peptide synthesis strategy developed by Geysen, called Multipin Peptide Synthesis (Mimotopes, San Diego, Calif.). Geysen, Southeast Asian J Trop Med Public Health 21: 523-33, 1990; Chin et al., J Org Chem 62: 538-539, 1997. Peptides were immobilized on derivatized polyethylene pins arranged in a microtiter ELISA plate format. Each peptide was eight amino acids in length and consecutive peptides were offset by two amino acids. All peptides were bound covalently to the surface of the plastic pins. The first peptide was […] for human αB crystallin.
(§4) Ghosh and Clark, Protein Sci 14: 684-95, 2005. […] The intensity of the blue color in the wells was measured at 450 nm using an ELISA plate-reader (BioTek, Winooski, Vt.). The intensity of the blue color (plotted on the X-axis) was a measure of the interaction between αB crystallin peptides (plotted on the Y-axis) and target proteins. To measure the effect of temperature on the interactions between interactive peptides and the target proteins, the target proteins were heated in a water-bath at 45° C. for fifteen minutes prior to use. Pin arrays are unable to differentiate between monomers, dimers or oligomers of target proteins that exist in solution. Instead, pin arrays are very sensitive detectors of interactions between individual peptides and the entire population (monomers, dimers or oligomers) of specific target proteins that may exist in solution under specific conditions. Each target protein was assayed two to five times. A single pin array was used for all experiments and no change in interactions was observed after more than thirty repetitions. The last three peptides of the protein pin array, 163REEKPAVT170, 165EKPAVTAA172, 167PAVTAAPK174, correspond to the epitope (163REEKPAVTAAPKK175) recognized by the primary antibody for human αB crystallin. A positive reaction is observed for these three peptides in the absence of human αB crystallin as the ligand due to direct binding of the anti-human αB crystallin antibody to these three peptides. The loss of efficiency for the pin array was measured using this assay. The loss of efficiency for the pin array was determined to be <5% by after more than 30 assays.
(§5) The amino acid sequences of each 8-mer human αB crystallin peptide immobilized sequentially on 84 pins in a 96-well ELISA plate format are listed on the Y-axis. […]

For assay [2], the target named is beta amyloid (Homo sapiens, UniProt P05067). Kind of assay: αB crystallin protein pin array screened for binding to beta amyloid. As to conditions: immobilized 8-mer peptide; absorption at 450 nm; assayed 2-5 times. The source says: αB Crystallin peptides that bind the target protein beta-amyloid were identified by screening an αB crystallin protein pin array, which provides a systematic method for evaluating interactions between peptides corresponding to residues 1-175 of human αB crystallin and selected target proteins in a parallel and simultaneous manner.
Peptides were synthesized on derivatized polyethylene pins arranged in a microtiter plate format. Each peptide was 8 amino acids in length and consecutive peptides were offset by 2 amino acids. All peptides were covalently bonded to the surface plastic pins. The first immobilized peptide was 1MDIAIHHP8 and the last peptide was 168PAVTAAPK175 for the human αB crystallin.
After synthesis, the pins were pre-coated at room temperature with 2% Bovine Serum Albumin (BSA), 0.1% Tween-20 and 0.1% Sodium azide in 10 mM phosphate buffered saline pH 7.2 (PBS) for 1 hr, and washed three times for 10 mins each with 10 mM PBS. To screen for binding to the peptides, fixed concentrations of the target protein beta amyloid was dissolved in 10 mM PBS, containing 0.05% Tween-20, added to each well and incubated for 1 hr at room temperature. The pin array was washed three times for 10 mins each with 10 mM PBS, containing 0.05% Tween-20. Monoclonal or polyclonal primary antibodies for the target protein beta amyloid was diluted into PBS buffer, added to each well and incubated for 1 hr at room temperature. Subsequently, the pin array was washed three times for 10 mins each with 10 mM PBS containing 0.05% Tween-20. Anti-rabbit horse-radish peroxidase conjugate secondary antibodies was diluted into PBS buffer, added to each well and incubated for 1 hr at room temperature. The pin array was washed three times for 10 mins each with 10 mM PBS containing 0.05% Tween-20. A chromogenic substrate of horse-radish peroxidase 3,3′,5,5′-Tetramethylbenzidine (TMB) (Pharmingen, San Diego, Calif.) which is colorless was added, and the reaction was carried out for 45 min.
The reaction was stopped by adding 6N sulfuric acid, which changes the color from blue to yellow. The absorption at 450 nm was measured by an ELISA reader (BioTek, Winooski, Vt.).
The pin array was regenerated by sonication in a water bath (VWR Aquasonic, West Chester, Pa.) with 100 mM PBS, containing 1% Sodium dodecyl sulfate (SDS) and 0.1% 2-Mercaptoethanol @ 60° C. for 10 mins. Next, the pin array was rinsed three times in deionized water, preheated to 60° C. for 30 secs each time, and shaken in water preheated at 60° C. for 30 min. The pin array was then washed with methanol at 60° C. for 15 secs and air-dried and stored @−20° C. for future use. Each target protein was assayed 2-5 times against the human αB crystallin protein pin array peptides to verify the reproducibility of the results. Peptides numbered 5, 7, 8, 9, 13, 19, 22, 23, 24, 27, 35, 38, 45, 51, 52, 56, 57, 61, 66, 71, 72, and 79 in Table 2 reproducibly tested positive in the protein pin assay.

For assay [3], the target named is T1, γD crystallin (Homo sapiens, UniProt P07320).
T1 sequence (P07320 1-174): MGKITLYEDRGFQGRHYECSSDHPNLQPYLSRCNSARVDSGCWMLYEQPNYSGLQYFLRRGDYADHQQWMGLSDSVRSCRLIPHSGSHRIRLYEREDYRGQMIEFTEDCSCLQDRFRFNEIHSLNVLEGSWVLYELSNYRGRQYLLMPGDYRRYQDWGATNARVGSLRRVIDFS
Kind of assay: Protein pin array interaction with γD crystallin. The assay is classed as binding. More on the design: purchased. As to conditions: unheated γD crystallin; similar peptide sequences with γD crystallin pre-heated at 45° C. for fifteen minutes.
Source text: as §1, §2, §3, §4, §5

Assay [4] addresses T2, porcine citrate synthase (CS) (Sus scrofa, UniProt P00889).
T2 construct: purchased
T2 sequence (P00889 28-464): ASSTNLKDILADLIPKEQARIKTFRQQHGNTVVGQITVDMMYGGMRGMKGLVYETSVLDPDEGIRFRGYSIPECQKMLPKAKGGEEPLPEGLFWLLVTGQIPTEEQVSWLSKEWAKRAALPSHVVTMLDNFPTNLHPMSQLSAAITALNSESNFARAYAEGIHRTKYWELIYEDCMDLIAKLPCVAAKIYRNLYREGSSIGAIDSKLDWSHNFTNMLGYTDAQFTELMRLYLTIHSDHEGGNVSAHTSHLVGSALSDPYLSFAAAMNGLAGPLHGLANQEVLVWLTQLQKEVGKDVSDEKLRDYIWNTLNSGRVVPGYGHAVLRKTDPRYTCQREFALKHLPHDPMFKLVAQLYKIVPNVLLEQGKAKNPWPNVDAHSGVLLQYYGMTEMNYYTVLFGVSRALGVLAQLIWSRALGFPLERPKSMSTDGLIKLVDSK
Briefly: Protein pin array interaction with citrate synthase. It counts as binding. The conditions noted are these: CS as target protein, unheated and pre-heated.
Source text: as §1, §2, §3, §4
(§6) The Y-axis lists the amino acid sequences of the 8-mer peptides that are immobilized sequentially in a 96-well format. […]

Assay [5] has as its target T3, equine alcohol dehydrogenase (ADH) (Equus caballus, UniProt P00327).
T3 construct: purchased
Briefly: Protein pin array interaction with alcohol dehydrogenase. The assay is classed as binding. As to conditions: ADH as ligand, unheated and pre-heated.
Source text: as §1, §2, §3, §4, §6

T3 sequence (P00327 whole entry): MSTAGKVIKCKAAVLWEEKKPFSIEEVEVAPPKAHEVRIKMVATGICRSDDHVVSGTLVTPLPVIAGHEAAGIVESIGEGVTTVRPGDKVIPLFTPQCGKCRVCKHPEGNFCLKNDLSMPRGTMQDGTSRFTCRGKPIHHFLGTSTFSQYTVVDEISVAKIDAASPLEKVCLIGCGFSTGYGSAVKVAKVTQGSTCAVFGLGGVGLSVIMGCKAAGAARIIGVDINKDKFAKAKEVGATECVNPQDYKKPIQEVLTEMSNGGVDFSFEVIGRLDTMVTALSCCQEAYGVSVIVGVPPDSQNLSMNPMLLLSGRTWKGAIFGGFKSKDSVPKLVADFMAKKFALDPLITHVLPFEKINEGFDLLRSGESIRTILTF

Take PPSFLRAP [Peptide 26]: the “absorbance at λ=450 nm, interaction with βH crystallin” value (“absorbance … with βH crystallin” below) in assay [1] is reported as “Maximum absorbances”.
Consider HGKHEERQ [Peptide 51], for which the “protein pin assay result with target protein beta amyloid” value (“protein pin assay result” for short) in assay [2] was “positive”.
With KHEERQDE [Peptide 52], the “protein pin assay result” value in assay [2] is “positive”.
Consider DQFFGEHL [Peptide 13], for which, in assay [3], the “absorbance at λ=450 nm, interaction with γD crystallin” value (shortened to “absorbance … with γD crystallin”) was “maximum absorbances”. Also, the “protein pin assay result” value in assay [2] was “positive”.
Consider FISREFHR [Peptide 57], for which, in assay [1], the “absorbance … with βH crystallin” value is on record as “Maximum absorbances”. The “absorbance at λ=450 nm, interaction with CS” value (shortened to “absorbance … with CS”) in assay [4] is “absorbance maxima”. In assay [2], the “protein pin assay result” value is listed as “positive”.
Consider GVLTVNGP [Peptide 71], for which the “absorbance … with γD crystallin” value in assay [3] is reported as “maximum absorbances”. For the same sequence, the “absorbance … with βH crystallin” value in assay [1] is “Maximum absorbances”. The “absorbance at λ=450 nm, interaction with ADH” value (“absorbance … with ADH” below) in assay [5] is given as “Maximum absorbances”. Moreover, the “protein pin assay result” value in assay [2] is listed as “positive”.
As for FHSPSRLF [Peptide 9], the “protein pin assay result” value in assay [2] is recorded as “positive”.
For FFGEHLLE [Peptide 14], the “absorbance … with ADH” value in assay [5] is “Maximum absorbances”.
Turning to SPFYLRPP [Peptide 23], the “absorbance … with βH crystallin” value in assay [1] was “Maximum absorbances”. In addition, the “protein pin assay result” value in assay [2] is “positive”.
In the case of SFLRAPSW [Peptide 27], the “absorbance … with γD crystallin” value in assay [3] is listed as “maximum absorbances”. The “protein pin assay result” value in assay [2] is listed as “positive”.
RTIPITRE [Peptide 79]: the “absorbance … with βH crystallin” value in assay [1] is reported as “Maximum absorbances”. Moreover, the “absorbance … with ADH” value in assay [5] is on record as “Maximum absorbances”. For the same sequence, the “absorbance … with CS” value in assay [4] was “absorbance maxima”. In addition, the “protein pin assay result” value in assay [2] is given as “positive”.
As to IAIHHPWI [Peptide 2], in assay [3], the “absorbance … with γD crystallin” value is given as “maximum absorbances”.
Consider PFFPFHSP [Peptide 7], for which the “absorbance … with γD crystallin” value in assay [3] was “maximum absorbances”. The “absorbance … with ADH” value in assay [5] is “Maximum absorbances”. In addition, in assay [2], the “protein pin assay result” value is given as “positive”.
With LRAPSWFD [Peptide 28], in assay [4], the “absorbance … with CS” value is “absorbance maxima”.
For EFHRKYRI [Peptide 59], in assay [3], the “absorbance … with γD crystallin” value was “maximum absorbances”.
As for SLSPFYLR [Peptide 22], the “absorbance … with γD crystallin” value in assay [3] was “maximum absorbances”. Besides, the “absorbance … with ADH” value in assay [5] is on record as “Maximum absorbances”. Also, the “absorbance … with CS” value in assay [4] is listed as “absorbance maxima”. In assay [2], the “protein pin assay result” value is recorded as “positive”.
With FYLRPPSF [Peptide 24], in assay [3], the “absorbance … with γD crystallin” value is reported as “maximum absorbances”. Moreover, the “absorbance … with βH crystallin” value in assay [1] was “Maximum absorbances”. Also, the “absorbance … with CS” value in assay [4] is on record as “absorbance maxima”. In addition, the “protein pin assay result” value in assay [2] is “positive”.
With LKVKVLGD [Peptide 45], the “absorbance … with βH crystallin” value in assay [1] is “Maximum absorbances”. Moreover, in assay [2], the “protein pin assay result” value is “positive”.
Regarding SREFHRKY [Peptide 58], in assay [5], the “absorbance … with ADH” value is “Maximum absorbances”.
The same measure, in the same setting: the value for LRPPSFLR [Peptide 25] was “Maximum absorbances”.
As to LTVNGPRK [Peptide 72], the “absorbance … with CS” value in assay [4] is “absorbance maxima”. Also, in assay [2], the “protein pin assay result” value is listed as “positive”.
As for LFPTSTSL [Peptide 19], in assay [5], the “absorbance … with ADH” value was “Maximum absorbances”. Besides, in assay [2], the “protein pin assay result” value is listed as “positive”.
As for KYRIPADV [Peptide 61], in assay [1], the “absorbance … with βH crystallin” value is recorded as “Maximum absorbances”. Further, the “protein pin assay result” value in assay [2] is reported as “positive”.
For the sequence HGFISREF [Peptide 56], the “absorbance … with γD crystallin” value in assay [3] was “maximum absorbances”. Further, in assay [2], the “protein pin assay result” value is recorded as “positive”.
FPFHSPSR [Peptide 8]: in assay [4], the “absorbance … with CS” value is listed as “absorbance maxima”. Further, in assay [2], the “protein pin assay result” value is given as “positive”.
Turning to RLEKDRFS [Peptide 35], the “absorbance … with βH crystallin” value in assay [1] is recorded as “Maximum absorbances”. Also, the “absorbance … with ADH” value in assay [5] is “Maximum absorbances”. Moreover, the “protein pin assay result” value in assay [2] is listed as “positive”.
